Laboratory results published in the Immune Epitope Database (IEDB).

How the values were obtained:
HLA-B*46:01 = assay: IEDB peptide-MHC binding, purified MHC/competitive/fluorescence; filed as Kd, often an IC50 or EC50 that approximates it; ≥ and ≤ were set here for values at or beyond the usual limits of such assays
HLA-B*15:02 = assay: as above; conditions: source organism: Homo sapiens
HLA-B*58:01 [1] = assay: IEDB peptide-MHC binding, purified MHC/competitive/radioactivity; filed as Kd, often an IC50 or EC50 that approximates it; ≥ and ≤ were set here for values at or beyond the usual limits of such assays; conditions: source organism: Homo sapiens
HLA-A*02:01 [2] = assay: as above; conditions: source organism: Homo sapiens
HLA-A*29:02 [3] = assay: as above; conditions: source organism: Homo sapiens
HLA-A*02:07 = assay: as above; conditions: source organism: Homo sapiens
HLA-B*57:01 = assay: as above; conditions: source organism: Homo sapiens
HLA-B*14:02 = assay: IEDB peptide-MHC binding, purified MHC/direct/fluorescence; filed as Kd, often an IC50 or EC50 that approximates it; ≥ and ≤ were set here for values at or beyond the usual limits of such assays; conditions: source organism: Homo sapiens
HLA-B*40:13 = assay: IEDB peptide-MHC binding, purified MHC/competitive/fluorescence; filed as Kd, often an IC50 or EC50 that approximates it; ≥ and ≤ were set here for values at or beyond the usual limits of such assays; conditions: source organism: Entamoeba histolytica HM-1:IMSS
HLA-A*68:23 = assay: as above; conditions: source organism: Entamoeba histolytica HM-1:IMSS
HLA-B*83:01 = assay: as above; conditions: source organism: Entamoeba histolytica HM-1:IMSS
HLA-B*15:42 = assay: as above; conditions: source organism: Entamoeba histolytica HM-1:IMSS
HLA-B*45:06 = assay: as above; conditions: source organism: Entamoeba histolytica HM-1:IMSS
HLA-A*32:15 = assay: as above; conditions: source organism: Entamoeba histolytica HM-1:IMSS
HLA-B*51:01 = assay: as above; conditions: source organism: Entamoeba histolytica HM-1:IMSS
HLA-C*05:01 = assay: IEDB peptide-MHC binding, purified MHC/direct/fluorescence; filed as Kd, often an IC50 or EC50 that approximates it; ≥ and ≤ were set here for values at or beyond the usual limits of such assays; conditions: source organism: Entamoeba histolytica HM-1:IMSS
HLA-B*58:01 [4] = assay: IEDB peptide-MHC binding, purified MHC/competitive/fluorescence; filed as Kd, often an IC50 or EC50 that approximates it; ≥ and ≤ were set here for values at or beyond the usual limits of such assays; conditions: source organism: Escherichia coli str. K-12 substr. DH10B
HLA-A*02:01 [5] = assay: as above; conditions: source organism: Escherichia coli str. K-12 substr. DH10B
HLA-A*11:01 = assay: as above; conditions: source organism: Escherichia coli str. K-12 substr. DH10B
HLA-B*48:01 = assay: as above; conditions: source organism: Escherichia coli str. K-12 substr. DH10B
HLA-A*31:01 = assay: as above; conditions: source organism: Escherichia coli str. K-12 substr. DH10B
HLA-A*01:01 = assay: as above; conditions: source organism: Escherichia coli str. K-12 substr. DH10B
HLA-A*26:02 = assay: as above; conditions: source organism: Escherichia coli str. K-12 substr. DH10B
HLA-A*02:03 = assay: as above; conditions: source organism: Escherichia coli str. K-12 substr. DH10B
HLA-B*08:03 = assay: as above; conditions: source organism: Escherichia coli str. K-12 substr. DH10B
HLA-A*30:01 = assay: as above; conditions: source organism: Escherichia coli str. K-12 substr. DH10B
HLA-A*03:01 = assay: as above; conditions: source organism: Escherichia coli str. K-12 substr. DH10B
HLA-B*18:01 = assay: as above; conditions: source organism: Escherichia coli str. K-12 substr. DH10B
HLA-A*02:12 = assay: as above
HLA-B*27:05 = assay: as above; conditions: source organism: Escherichia coli str. K-12 substr. DH10B
HLA-B*40:01 = assay: as above; conditions: source organism: Escherichia coli str. K-12 substr. DH10B
HLA-B*07:02 = assay: as above; conditions: source organism: Escherichia coli str. K-12 substr. DH10B
HLA-B*15:01 = assay: as above; conditions: source organism: Escherichia coli str. K-12 substr. DH10B
HLA-B*08:02 = assay: as above; conditions: source organism: Escherichia coli str. K-12 substr. DH10B
HLA-B*35:01 = assay: as above; conditions: source organism: Escherichia coli str. K-12 substr. DH10B
HLA-A*02:19 = assay: as above; conditions: source organism: Burkholderia mallei NCTC 10229
HLA-A*29:02 [6] = assay: as above; conditions: source organism: Burkholderia mallei NCTC 10229
HLA-A*80:01 = assay: as above; conditions: source organism: Burkholderia mallei NCTC 10229
HLA-B*39:01 = assay: as above; conditions: source organism: Burkholderia mallei NCTC 10229
HLA-A*26:01 = assay: as above; conditions: source organism: Burkholderia mallei NCTC 10229
HLA-C*15:02 = assay: IEDB peptide-MHC binding, purified MHC/direct/fluorescence; filed as Kd, often an IC50 or EC50 that approximates it; ≥ and ≤ were set here for values at or beyond the usual limits of such assays; conditions: source organism: Burkholderia mallei NCTC 10229
[7] = source organism: Escherichia coli str. K-12 substr. DH10B

Work on SIRDGVRAY yielded a Kd (HLA-B*46:01; source organism: Homo sapiens) of 51.5 nM, a Kd (HLA-B*15:02) of 13.8 nM and a Kd (HLA-B*58:01 [1]) of at least 48300 nM. It also gave a Kd (HLA-A*02:01 [2]) of at least 78100 nM, a Kd (HLA-A*29:02 [3]) of 2870 nM and a Kd (HLA-A*02:07) of at least 60000 nM. The Kd (HLA-B*57:01) was at least 45600 nM.
In the case of DELNHASI, the Kd (HLA-B*14:02) is reported as 163 nM.
Work on MPYHGYHII yielded a Kd (HLA-B*40:13) of 44.1 nM, a Kd (HLA-A*68:23) of 95 nM and a Kd (HLA-B*83:01) of 36.9 nM. The Kd (HLA-B*15:42) was at least 5000 nM, the Kd (HLA-B*45:06) was at least 5000 nM and the Kd (HLA-A*32:15) was 134 nM. The Kd (HLA-B*51:01) was 91 nM and the Kd (HLA-C*05:01) was at least 20000 nM.
QVIFKCVPK showed a Kd (HLA-B*58:01 [4]) of 2260 nM, a Kd (HLA-A*02:01 [5]) of 367 nM and a Kd (HLA-A*11:01) of 190 nM. It also gave a Kd (HLA-B*48:01) of at least 20000 nM, a Kd (HLA-B*46:01; [7]) of at least 20000 nM and a Kd (HLA-A*31:01) of 4770 nM. For the same sequence, the Kd (HLA-A*01:01) was 1040 nM, the Kd (HLA-A*26:02) was at least 20000 nM and the Kd (HLA-A*02:03) was at least 20000 nM. The Kd (HLA-B*08:03) was at least 20000 nM, the Kd (HLA-A*30:01) was 75.3 nM and the Kd (HLA-A*03:01) was 1070 nM. It also gave a Kd (HLA-B*18:01) of at least 20000 nM, a Kd (HLA-A*02:12; [7]) of 68.6 nM and a Kd (HLA-B*27:05) of at least 20000 nM. The Kd (HLA-B*40:01) was at least 20000 nM, the Kd (HLA-B*07:02) was at least 20000 nM and the Kd (HLA-B*15:01) was at least 20000 nM. For the same sequence, the Kd (HLA-B*08:02) was at least 20000 nM and the Kd (HLA-B*35:01) was at least 20000 nM.
In the case of RTFGQPLFF, the Kd (HLA-A*02:19) is reported as at least 20000 nM, the Kd (HLA-A*29:02 [6]) is reported as 0.2 nM and the Kd (HLA-A*80:01) is reported as 413 nM. It also gave a Kd (HLA-A*02:12; source organism: Burkholderia mallei NCTC 10229) of at least 20000 nM, a Kd (HLA-B*39:01) of at least 20000 nM and a Kd (HLA-A*26:01) of at least 20000 nM. For the same sequence, the Kd (HLA-C*15:02) was 5 nM.
